The values that follow come from patent JP2003261460A.

In the assay the target is Flt-1 (VEGFR-1, fms-like tyrosine kinase-1) of wild-type mice (WF) (mouse) (UniProt P35969). The assay can be described thus: cell-based or functional assay.
Sequence of UniProt P35969 (P35969 23-1333 S1181G): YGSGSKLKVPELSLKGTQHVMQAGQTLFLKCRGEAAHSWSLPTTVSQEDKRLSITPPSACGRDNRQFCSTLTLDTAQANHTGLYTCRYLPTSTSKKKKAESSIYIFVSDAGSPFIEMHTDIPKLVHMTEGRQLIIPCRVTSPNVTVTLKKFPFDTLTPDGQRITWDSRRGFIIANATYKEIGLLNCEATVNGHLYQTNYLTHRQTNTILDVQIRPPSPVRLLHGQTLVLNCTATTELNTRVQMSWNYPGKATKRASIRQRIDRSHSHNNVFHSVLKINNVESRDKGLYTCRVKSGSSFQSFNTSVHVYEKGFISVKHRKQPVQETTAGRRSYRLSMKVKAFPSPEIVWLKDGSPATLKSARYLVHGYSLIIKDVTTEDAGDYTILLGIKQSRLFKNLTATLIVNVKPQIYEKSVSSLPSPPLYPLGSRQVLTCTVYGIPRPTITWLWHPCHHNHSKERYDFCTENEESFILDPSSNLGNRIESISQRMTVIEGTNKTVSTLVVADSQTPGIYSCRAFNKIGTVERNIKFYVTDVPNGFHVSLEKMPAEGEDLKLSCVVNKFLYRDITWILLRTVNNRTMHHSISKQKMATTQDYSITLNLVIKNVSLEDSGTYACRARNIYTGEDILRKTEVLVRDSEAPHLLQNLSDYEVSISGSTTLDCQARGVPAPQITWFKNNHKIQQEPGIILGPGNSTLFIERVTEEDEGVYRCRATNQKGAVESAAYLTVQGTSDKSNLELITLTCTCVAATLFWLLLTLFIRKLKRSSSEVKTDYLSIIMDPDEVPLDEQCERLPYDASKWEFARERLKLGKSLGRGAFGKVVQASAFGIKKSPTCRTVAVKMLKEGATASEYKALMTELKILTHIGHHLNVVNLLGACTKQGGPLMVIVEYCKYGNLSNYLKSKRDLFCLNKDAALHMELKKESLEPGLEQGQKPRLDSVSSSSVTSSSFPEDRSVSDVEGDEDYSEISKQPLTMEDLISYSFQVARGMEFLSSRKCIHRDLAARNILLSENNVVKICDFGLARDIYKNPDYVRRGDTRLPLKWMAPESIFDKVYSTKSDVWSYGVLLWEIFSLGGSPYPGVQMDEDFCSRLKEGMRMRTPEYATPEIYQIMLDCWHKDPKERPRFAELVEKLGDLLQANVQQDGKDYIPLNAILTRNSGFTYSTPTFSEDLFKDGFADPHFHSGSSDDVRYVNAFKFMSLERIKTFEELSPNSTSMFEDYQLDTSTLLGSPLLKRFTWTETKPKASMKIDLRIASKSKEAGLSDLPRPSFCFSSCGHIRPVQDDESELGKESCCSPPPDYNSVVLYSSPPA

Substance VEGF (R&D社製) (ligand) had an MMP-9誘導 (肺組織培養, ゼラチン基質ザイモグラフィー) of 40 ng/mL.
